# Data published in IntAct's records for PubMed 18477457.
# B1: Protein pop-1 (Caenorhabditis elegans), Q10666 (parent)
# chain: MMADEELGDEVKVFRRDEDADDDPMISGETSEQQLADDKKEAVMEAELDGAGRNPSIDVLKSAFPKVEPMSPSFPGLMSHFSPGYSAAALPMFMPLFMNPYAAALRSPSLMFPMGAMSPTFPMFPPSPVYGAAIAAAAAKQHFENMAPLNMRAGHPMNQMGMPPYMHPSSMAPQNVDRRAQGGGKAKKDDHVKKPLNAFMWFMKENRKALLEEIGNNEKQSAELNKELGKRWHDLSKEEQAKYFEMAKKDKETHKERYPEWSARENYAVNKKKTKKRRDKSIPSENNDQKKCRARFGVNNTEMWCKFCKRKKKCEYATDRSGGSDITDSQDGRGTSGAYSSSSESPSPKANAGIALTTQQQQAAMMHTMLMQMRLGSTTGASTHVPSPLASSSAGRSPLDANASDSESDVEEEEDEQIDPTVMQQTHDMLMQESMCTI
# partner: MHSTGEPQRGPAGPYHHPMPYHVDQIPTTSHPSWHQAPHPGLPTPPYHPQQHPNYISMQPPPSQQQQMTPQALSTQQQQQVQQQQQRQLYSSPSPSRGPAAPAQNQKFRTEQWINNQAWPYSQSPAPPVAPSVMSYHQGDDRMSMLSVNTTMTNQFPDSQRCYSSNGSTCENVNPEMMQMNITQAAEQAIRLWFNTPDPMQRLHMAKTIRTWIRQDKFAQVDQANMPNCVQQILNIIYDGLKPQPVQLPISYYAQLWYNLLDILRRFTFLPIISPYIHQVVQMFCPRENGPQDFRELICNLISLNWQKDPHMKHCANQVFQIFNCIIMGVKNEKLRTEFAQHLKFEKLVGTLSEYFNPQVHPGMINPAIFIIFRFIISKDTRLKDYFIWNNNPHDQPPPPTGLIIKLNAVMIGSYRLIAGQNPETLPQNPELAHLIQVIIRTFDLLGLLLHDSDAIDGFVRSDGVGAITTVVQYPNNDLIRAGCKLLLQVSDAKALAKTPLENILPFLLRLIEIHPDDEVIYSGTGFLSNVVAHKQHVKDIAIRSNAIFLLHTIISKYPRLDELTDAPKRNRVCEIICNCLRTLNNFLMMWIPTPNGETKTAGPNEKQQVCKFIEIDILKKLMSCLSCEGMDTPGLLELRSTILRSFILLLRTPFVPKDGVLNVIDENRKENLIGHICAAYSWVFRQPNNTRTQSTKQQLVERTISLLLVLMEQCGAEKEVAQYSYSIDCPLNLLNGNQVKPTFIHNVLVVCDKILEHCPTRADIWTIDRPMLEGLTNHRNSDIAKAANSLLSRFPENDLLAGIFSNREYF
# B2: Beta-catenin homolog sys-1 (Caenorhabditis elegans), Q9XVI2 (parent)
# chain: B1 partner
# partner: B1 chain
# Variants of: B1
# Settings: with ctnh1_caeel sys-1, Q9XVI2
row,effect of a mutation on the interaction,Variant
1,disrupting interaction strength,D9E

# Variants of: B2
# Settings: with pop1_caeel pop-1, Q10666
row,effect of a mutation on the interaction,Variant
1,disrupting interaction strength,K539A
2,disrupting interaction strength,A533L
